These results are taken from article PMC8857057.

The data set addresses Pab1 monomer (Saccharomyces cerevisiae, UniProt P04147 1-577). Put plainly: fluorescence anisotropy. (In fluorescence polarisation assays a small probe gives low polarisation when free and higher when bound to something large.)

Sequence of Pab1 monomer (P04147 whole entry): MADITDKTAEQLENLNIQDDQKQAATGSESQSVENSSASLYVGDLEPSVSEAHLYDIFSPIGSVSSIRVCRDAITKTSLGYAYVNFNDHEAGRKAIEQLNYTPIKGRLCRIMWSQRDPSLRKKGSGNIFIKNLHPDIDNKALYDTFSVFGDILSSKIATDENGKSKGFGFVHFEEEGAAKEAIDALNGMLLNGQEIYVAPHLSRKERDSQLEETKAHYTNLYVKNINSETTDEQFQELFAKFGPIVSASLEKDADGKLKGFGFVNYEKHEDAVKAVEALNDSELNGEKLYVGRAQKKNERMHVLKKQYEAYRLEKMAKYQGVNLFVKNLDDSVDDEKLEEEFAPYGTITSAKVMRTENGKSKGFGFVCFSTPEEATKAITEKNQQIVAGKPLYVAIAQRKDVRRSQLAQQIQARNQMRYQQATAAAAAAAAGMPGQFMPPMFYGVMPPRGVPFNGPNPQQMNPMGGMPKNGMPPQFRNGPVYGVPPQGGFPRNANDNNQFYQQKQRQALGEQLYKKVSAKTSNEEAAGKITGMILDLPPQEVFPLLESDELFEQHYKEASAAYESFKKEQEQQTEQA

With AAAAAAAAAAAAAAAAAAA (ssRNA) [A19 RNA], the binding result is listed as “binds”.
